Source: paper PMC3061879, “Crystal Structure of a Coiled-Coil Domain from Human ROCK I” (PLoS ONE, 2011)

B1: ROCK coiled-coil domain (ROCK-CC, residues 535–700) of human ROCK I (domain or fragment, UniProt Q13464 535-700, looked up)
chain: LANEKLSQLQKQLEEANDLLRTESDTAVRLRKSHTEMSKSISQLESLNRELQERNRILENSKSQTDKDYYQLQAILEAERRDRGHDSEMIGDLQARITSLQEEVKHLKHNLEKVEGERKEAQDMLNHSEKEKNNLEIDLNYKLKSLQQRLEQEVNEHKVTKARLTD
modifications: selenomethionine (SeMet) substituted protein in the crystals used for the structure
notes: Rho-associated kinase ROCK I (p160 ROCK), human, residues 535-700 of the central coiled-coil domain; The model holds residues 542–693 (A), 541–692 (B), 535–692 (C), 535–693 (D); also called ROCK (535–700); p160 ROCK (535–700); source: E. coli Rosetta2 (DE3), purified (Ni-NTA, TEV cleavage, cation exchange HiTrap SP); not shown: 6xHistidine-TEV, N-terminal, cleaved
B2: ROCK (535–704), coiled-coil fragment of human ROCK I (domain or fragment, UniProt Q13464 535-704, looked up)
chain: LANEKLSQLQKQLEEANDLLRTESDTAVRLRKSHTEMSKSISQLESLNRELQERNRILENSKSQTDKDYYQLQAILEAERRDRGHDSEMIGDLQARITSLQEEVKHLKHNLEKVEGERKEAQDMLNHSEKEKNNLEIDLNYKLKSLQQRLEQEVNEHKVTKARLTDKHQS
notes: Rho-associated kinase ROCK I (p160 ROCK), human, residues 535-704 of the central coiled-coil domain; The purification is described only for ROCK (535–700); also called ROCK-CC (as called in the text and legend title of the SEC-MALS experiment); source: E. coli Rosetta2 (DE3), purified

Legend:
[1] = target: the molecule itself; assay: crystal structure; SeMet ROCK (535–700), space group P4(3)2(1)2; 13% MPD, 100 mM NaCl, 100 mM sodium acetate pH 4.9, 10 mM DTT, 5% glycerol, 10 mM spermidine; SAD phasing; four molecules (2 dimers) per asymmetric unit
[2] = target: the molecule itself; assay: SEC-MALS; Superdex 200 in 20 mM Hepes pH 7.5, 150 mM NaCl, 2 mM TCEP; Wyatt miniDAWN TREOS three-angle light scattering detector and Optilab-rEX refractive index detector

| Protein | binding result [1] | stoichiometry N [2] |
| --- | --- | --- |
| B1 | binds |  |
| B2 |  | 2 |
